In the NTF2 design screens of Basanta et al. (2020) one finds protease stability score data, which are given here for 47 sequences.

The series is described as follows: protease stability score; higher = more stable; yeast display proteolysis, trypsin and chymotrypsin.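 Also: relative to predicted unfolded state with 0 unfolded-like and 1 meaning tenfold more protease.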
For “DEHEEDARRDLEKLARSLKTGDEDSLRTLFDPNTRNDVNGKDFIGWEELLRILREWRFHDMKVEDLEVQGNKVISHVRLDGTFDGRRDEMHVEIRAEKVNGRWRIRSYIVR”, the protease stability score turned out to be 1.77.

For the sequence “SEHEEVASRVTTEIIHNLLTGDWQRTTELMDPNTKLDVNGQHHHGWELYHKVLREWHEELRVHDMKEHDLKVIDGVAFSNMRVDIEINGVRFETEIRIIVVVVNGRIKSISFESK”, the protease stability score came out at 0.771. Consider “SEEEELVREHIKRVIHSYETGDWKSFLELFDPNVRLRVGDKELHGRELFIHWLVRLIELLGINHFELILHDVELQGNKAHSDIHSNLTVGDKTEHRKVHLFNLKVNGRWRTQSEHIE”, for which the protease stability score was found to be 1.36. As for “SEEEERMETLTRLLDHAWHTGDFDFLSKLLDPNTRVVQGEFHHHGRHALRKILHDLNRIMGVDHSDIEDREIQGDKIHIHVRIEVNGRVVDSHINIIVVDGRIKTVEMTIR”, the figure is -0.216. The sequence “DKLEKWAEHMVHLIFRAFETGDWRMLSKYFDPDTRHHVGNFHLVGMEDFIKLARELSERLGMEIDRVHVRHFDTQGDKLTVEIIVHSRVGDKEETRETIILVSKYNGRWHLSSIEIK” registered a protease stability score of 1.39. On to “DEDERTFRTAITLLLRDMHTGDEESFEKMVDPRTRLRYNGKELHGRDAYEFSLEELGVKHIEFKDMRVQGDFIWLEGTVNVNGKKIKLILIILKVDGKWIIHSIHLH”, for which the protease stability score stood at 0.799.

“SEDEENVEKFVRELIHNSRTGDEEKFMSLLDPNTRIHVDGRTFHGMELASEALKLLGVKVFHVHRIKVVGEWAHVDGEVNFNGKDHKVSFHSRKVNGQWLLESVEIQ” registered a protease stability score of 1.22. Regarding “DEEEELSTEVMEHVLELVLTGDEERLWKLFDPHVRLDIDGKHIIGRELVSKINKDRRRELRIHHVELKRFETQGEKVHSDIRVDGWIDGRRIDTDAHVIVVVVDGRLKSLRIIHH”, the protease stability score was 1.18. “DEDTKEADDFTKIWAKSVETGDEDMLKHLADPHVRVEIGDKVFIGRHFWLKVLRHIRVESVHVEDYKVQGEKVEYHVRFEVDINGQKVESTRRMIVRKVNGRWILETVILE” gave a protease stability score of 1.49.

On to “DEKEEHFTTMMEIWLEIFRTGDWERLEKLMDPNVRHREVVDGRHLHLHGMENVSRLLHERENKLGANHIDLTHADIVNGRASIEGRVNYGDKRHKIRFDIHIVNGRVQHIQDIKI”, for which the protease stability score was -0.034. The figure for “DEKEEILRQIMELMLRLLLTGDEDRLTELIDPNVRVVFEGRTYHGMDEVTELWKEIRIDSFRFRDVKNVGDKARLHGEQKVRVGNYSHEHKSEYQLFVVNGRAKSLEIRWH” is 1.31; for “DESTKEARKFKHEFDNDWKTGDEDSLLRLADPHVRTDVNGVENHGREDFVKLLMDIFREMRTEMRTRHVTVFNGRIEVHSTLHLHQGDKVIDLEVLIINRKVNGRWILESMEIK” it is 0.603. The figure for “SEEEEWAHELMRLLIEFNETGDEHELHNLIDPNVRIVIGEYTIIGREIAIEWTRQARIKRVHIEDYRFQGDKLHVDSRSNGKYGDKEDTLKVEIIVEKINGKWVVREVRVK” is 2.06; for “SEEERLTRELVEILLELFKTGDEDKWKEMVDPNVRVELIQGEKFIIDHGWESFFRFLLELGVDHREDKRKDAVNGRVHLTGQIDINGRRIDIHLDIDVVNGKVKSIRVELR” it is 0.933; for “KEEEELVKKMLDLLVEAWETGDWKLLDHLLDPNVKLEVDGVLHIGREEAVRVMLEFHKRVDHVEVRDRDFRIQGEKVRHEVELRLHQGEFHVITRIEIEVTKVNGRWQMKHIRIE” it is 2.56. “DEKEKESEDLAEIILKLWATGDEEIFEHLLDPNVWMIDEDEVFHGMEKVSEFLLRLREKLGVDHFRVHHIEIQGDKVHMDIRLEVNGKILKTHIRVIIINGRIHTVEIRIH” came in with a protease stability score of 2.37. The figure for “DHEDELKMHLFEHLLEVLMTGDEHRKTRLLDPDARSHLDINGQKIDVMGWEEVTKLDRKLHEEIRFHEIHIREWELQGDKIFVVGETRIEINGVEFRTEVRIIVVVVNGRLKALFFHVH” is 0.271; for “DESTRDFRQFFKLLVEHFKTGDWRRLADLFDPNVRVEINGRELHGRENIALWLRDRFKHLGVDHVHMRIRDLEVQGDKIRIHVELEIRVGDKVFYHETVLVIEKFDGRWIVHEEEYK” it is 1.49; for “DDTEDLATELSKIIRTVLRTGDWHTLRELADPNMRLNVNGQERHGMDLVREIHLNAGWQRVTVIIRHLHIDENEMHLETETRYDGQKHRVHVHVKKINGRWVIDFIIIH” it is 1.09. As for “EEEREIHQRHWEERLRAHRTGDEETLERQADPDVRIDFNGVELHGREVAVRFLLEMRLHDVDWRRIHTFDGRVDVDVIVDGEYNGRRYRSTFTLVIIKVNGQWLVHSMEFK”, the figure is 0.244; as for “SEEEKEMEDFLREFEKNLRTGDEEQIRRLADPHVRMEVNGVEHIGRKHVSRFWYHLVRRADHIHIEVEDMHLVGEKMELIGILRLRVNGRDLTHHHRLIVDKIDGRWFLRESRIH”, 1.73.

Take “KEDEELSSRFMLLMWHLMVTGNWKILEELADPNVRFIDEHHTLHGREEFVRTFKDWFDEIKNMKIHVRDSTVQGEKSNIHGELNFNGKRVDYTFIILFFNGRLHQIELRYH”: the protease stability score is -0.069. For the sequence “SEQEESRRWWLEELLTFLVTGDENRLKELLDPDVRVVVNGKHLHGMEAFEEYLRQIDHVDSHKVTDVKVQGNKIIVHTRAKINVDGRHVETELIFIVHKIDGKWKLHSFESR”, the protease stability score was 1.69. The sequence “DEEERLLEKSIKEEIERNVTGDFRRIHELFDPNMRLDINGQEYMGRDLMVERWQKFKNVRSHIELRHYEIINGKAHVDGHLILYIDGVELRTRTRIIYVKINGRWSIQEIDIT” yielded a protease stability score of 1.38. “SETEELASKVTKEFKRVLETGDWRVSLNLLDPDTLLEINGVEFHGREAWEEFNERFKNVKIHFIERDMKIVGNKIKIEGHLEDRWNGQSTHREMHLVFDKVNGRWFNRSVHFG” returned a protease stability score of 0.57. As to “DEDEKESKEAIEISFRLWRTGNEEEIHNYADPRARLEVFINGRLIQRHGREDFSRFMNEQLKRLGIDHIHIERLEIQGEKVIVDIHITVNGQHFRLHQDARKVDGRWIIHDVKINLL”, the protease stability score was found to be 2.65. Turning to “DEIHKDAHRFVELLLRLLRTGDEDSIEKLMDPHAKININGQERIGREETIELALHWRNDDHHIHDMITINGRVDVHGRVKGEFDGRHQEFTFRLIVLKVNGRWVNESHHYI”, the protease stability score is 0.83.

“DEDDRIHEWSMRWLIQSLRTGDEDMLREYIDPHTRVHVNGKEEHGREAADKLAKRIDHLHHLIIRSEERQGDKIIMDIERDILIDGVRINTRVSLILLKVNGRWFMKSIHFL” showed a protease stability score of 0.826. In turn, “SEEEDHIRRAIERFSKDQETGDEDSIRELLDPHVRMHVDGQELIGRDLILKFWSELRVHHWEMHSVRVVGDYVDFDVTLDMRVGDKSHRIKATLIILKIDGRWILKLVIID” returned a protease stability score of 1.19. Consider “TEEEHLMKEMLDLWVEALMTGDEKLLSELMDPNTRFHLRYGDFLQDRHGRHIINHIIRHWRFHVFKIEDTKVFNGRAIADTHLDVEIDGRRVRTRTKVDLVTINGKIERLDLEID”, for which the protease stability score worked out at 0.902.

Consider “DEDRKMAEHWIRIWYHLVETGDEEEINNFADPHTRMEVNGVEFHGRELVKHSNHKLLRDAGVDKIHVEIHEMRVIGNKVEIHGTIRFNGQEYHFILIVLKVNGRWVIESMKHE”, for which the protease stability score worked out at 0.724. The figure for “HELEHELEKFMQWIIEFLETGDEDALSTLLDPNVRYVINGQNLHGRSLLITTLHRLKEEIRVHWKIRDLKIQGDKAHSDGRFTIIVNGRKHSVDSHINVTIVDGRIHRVEIELR” is 1.7. As for “DEEHRDLEHFMEIYEDALRTGDEKIIKFLLDPHVRFKQGNKQEHGWEAVYRYLHRFDVVKDVRFRIRSLEIQGDFLIVHYEVRYRGEINGQEHHVTIEYVIIVKKIDGKWLVHEVSIL”, the figure is 1.62; as for “DEDAHLIEHLVHLMLHATNTGDEDILKDLMDPNMKIQIGDKEFHGREEFEEMHRRADHLETTDWKLHSVDIQGDKIHLDTRVDRVIIINGKITREDTRTELDVRKIDGRWVVTRISVE”, 1.27; as for “DEDEKRVEHTERFLSHSRRTGDEETLETMFDPNAKNIIDGRIFIGREFVEIWVRKFKNATEDLKVEEIRVQGNKVELVGNLFVQVGDKRYELDTRIEMTKIDGRWIIHRIEFR”, 1.21. Turning to “GEKEELSRLALHLWFRDYHTGDEDSAHRLLDPNVRLHVGDKHFVGRERFTRFWHEVYRELRIDDYILHSEDIQGDKIHMDGRIDGVVGDKREDFRTEIHLIWIDGKLHSEKRDKE”, the protease stability score came to 0.902.

Regarding “TESEFMKEYANKHLTRHLETGDWKDFQRNVDPNARVDFNGVELIGREHAIKLFHEIRIEHLEIHDVKMQGDKLEVDGILHTRQGDKRHDLKVIIHMLKVDGKWVITEIEVR”, the protease stability score stood at 0.948. Turning to “SEDHKETEEAMHKIRHDLETGDEKSWHEQADPNTRIDINGVDLHGREWASKFYSDVMQKVKGATVHLKHVHIFENRLIVDGIEIVNGRTHRVHLIADKINGRWVIREIRVE”, the protease stability score worked out at 1.06.

Take “DEERRHFEHFFHLWEQIMVTGDEDMARMLADPNVRIQVGDKKYHGREHFAELIKHLRVERIRIHTFRLYDGRIELIIHVHGNVNGQRDEFETRSHTIKVDGVWVIHSFHID”: the protease stability score was 1.6. As for “SEDEHFLERFLKLFLHAYETGDEDFIKHLLDPHTRIDIHIGDKTHHLHGRDEMSKLHRKLGAKVSRHRDSNMDIQGDKATSHIHGVEYVNGREIRIDIVLIMRKVDGRWVIESMIFIFH”, the figure is 1.25; as for “EEHHEITKDLIELLERTMKTGDEDILRKMADPHTKVEQGDKRIIGRDEFQEEWVEWMRRVDHAEVRLTDFREFPNHLELHGTLDVNINGRDIRIEIQIIVSKFDGRWSLHSISFR”, 0.107.

Sequence “DELEQWVKHALEIWVRSLHTGDEDNLSELVDPNVRIDVNGQELHGRELVLHFLSHMRVHIIITRDREIQGNKAIMHLEVHHHQGDKEIHFRFDLIFHKYDGRWRLTEIRIE” registered a protease stability score of 1.03. The sequence “DEATEAWRVVVELIKRANETGDEETRSENMDPETRMSIDGVDFIGREEVIKHVHKVKNMRIKHVEINDVRIQGDKIHVRGTLHGTVNGRETRIDVVLYVWKINGQWIIHSIEFI” had a protease stability score of 1.5. Sequence “DEDRKHREHLSELFQKLWLTGDWRTLWRLLDPHVRLEVLIDGKRIEKIGRENISEMLHRFLEFLGVDHRELHDMEIQGDKVHLDERIHYNGREQKLHIEFKFINGRMHEIKIRYE” registered a protease stability score of 1.58. As for “DDENKQMEEAIWIWKYMVETGDERINHEFADPHARVDINGKEHHGREEIERFLIEFSEKVKNLRVEIEDFRSINGRVDVILRLTVNGKRVETRVHAIKVDGKWLIKEVRFH”, the figure is 0.624; as for “DRDQHQAEKAFKLLVDILQTGDEEEIYKMADPHMQIDFDGRLHHGRDEFVKLVSETIRKFKNIRVEIHHIEVFDGRMHTDSRIHVGDKEWTIDIHIQKVNGKWKLKHVRVD”, 0.945.

Turning to “SEEEHEQENWARLMLHLFLTGDEEILLELFDPNVRSDVDGRKFHGRDEVSHAIRWILEHFGFKHSHVRHFEIYNGRVHSEVEINVDGVRLTLHIHLNIYNGRLKDSEFRLK”, the protease stability score worked out at 0.967.
